In the test the target is 人EphA2 (human EphA2 on cells: 293T-EphA2 stable line and EphA2-positive tumour lines HCT116, HepG2, HCC827, MDA-MB-231) (human) (UniProt P29317). Description: FACS on 293T-EphA2 cells, EphrinA1-hFc alone (positive control without hybridoma supernatant), APC anti-human IgG Fc.

In patent publication CN115505041A one finds 293T-EphA2细胞结合活性 data, which are given here for one substance.

UniProt P29317, sequence (P29317 24-976): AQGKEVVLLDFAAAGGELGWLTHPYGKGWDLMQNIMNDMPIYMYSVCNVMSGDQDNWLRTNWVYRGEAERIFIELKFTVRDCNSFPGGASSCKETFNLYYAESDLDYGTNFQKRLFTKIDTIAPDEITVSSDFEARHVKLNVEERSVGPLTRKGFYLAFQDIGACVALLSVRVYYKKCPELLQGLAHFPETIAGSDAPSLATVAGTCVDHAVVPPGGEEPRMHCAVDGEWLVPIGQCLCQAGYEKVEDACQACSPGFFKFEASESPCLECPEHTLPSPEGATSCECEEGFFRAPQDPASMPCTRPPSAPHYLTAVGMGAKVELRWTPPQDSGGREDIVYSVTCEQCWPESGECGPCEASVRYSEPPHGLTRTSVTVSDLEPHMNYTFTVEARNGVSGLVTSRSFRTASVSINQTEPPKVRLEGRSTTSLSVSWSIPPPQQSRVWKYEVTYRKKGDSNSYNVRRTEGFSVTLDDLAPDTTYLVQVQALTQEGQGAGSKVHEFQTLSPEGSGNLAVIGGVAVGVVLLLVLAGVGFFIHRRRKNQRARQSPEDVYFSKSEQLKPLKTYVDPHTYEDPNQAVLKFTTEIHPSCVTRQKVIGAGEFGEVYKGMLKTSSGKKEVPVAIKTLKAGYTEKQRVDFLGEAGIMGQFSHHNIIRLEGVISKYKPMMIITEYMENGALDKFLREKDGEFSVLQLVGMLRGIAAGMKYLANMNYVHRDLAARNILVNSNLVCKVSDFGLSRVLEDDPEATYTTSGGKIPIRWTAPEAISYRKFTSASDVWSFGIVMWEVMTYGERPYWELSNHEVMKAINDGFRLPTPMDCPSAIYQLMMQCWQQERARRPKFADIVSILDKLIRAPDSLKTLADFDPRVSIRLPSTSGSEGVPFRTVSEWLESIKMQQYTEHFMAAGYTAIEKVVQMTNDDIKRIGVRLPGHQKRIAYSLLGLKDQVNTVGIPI

In turn, “重组EphrinA1-hFc配体蛋白 (recombinant EphrinA1-hFc ligand protein) (Fc fusion)” came in with a 293T-EphA2细胞结合活性 of 228000.
